# Measured values reported in PMC6819324.
# Molecular target: T1, AdpAlin (Streptomyces lincolnensis NRRL 2936) (UniProt A0A1B1M9Y0)
# T1 sequence: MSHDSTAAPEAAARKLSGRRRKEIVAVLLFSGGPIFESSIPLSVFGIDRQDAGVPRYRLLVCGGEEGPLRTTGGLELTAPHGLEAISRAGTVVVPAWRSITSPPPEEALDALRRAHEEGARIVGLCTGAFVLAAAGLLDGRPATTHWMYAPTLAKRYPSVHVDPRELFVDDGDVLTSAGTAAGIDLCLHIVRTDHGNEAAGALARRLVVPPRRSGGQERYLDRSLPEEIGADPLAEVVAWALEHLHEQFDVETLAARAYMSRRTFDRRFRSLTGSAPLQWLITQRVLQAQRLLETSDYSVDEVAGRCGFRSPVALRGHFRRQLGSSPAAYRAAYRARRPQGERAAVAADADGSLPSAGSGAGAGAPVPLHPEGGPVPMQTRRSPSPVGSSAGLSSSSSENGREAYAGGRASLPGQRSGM
# Experiment: EMSA
# Details: EMSA: 20 mM Tris-HCl pH 7.5, 5% glycerol, 0.1% BSA; 2.5 nM 5'-biotin probe; AdpAlin 0-6.4 uM (12.8 uM for probe-neg); 200-fold unlabeled competitor; salt and …
row,Sequence,binding
1,AGCCAGTGACGATAAGCGACCACCTGGGTCTCGCCCTGACCGTAGATCTTCGACAGATCCGTGGCACGCGCCGCCACTGCGGTGGTCCGGCCGACGATGGGTGTGGTGGTCACGAGAGGGCACTCCTGGGAACGACGACTGGGGGAATACCTCCATCGTCGCCGCCGCGGAGCGCCGTGTAGTCAGCCGCTGTTCCCTTATCGTCACTGGCT (double strand) [bldAp-N],no binding
2,AGCCAGTGACGATAAGCGAGACAAGCAATCGGCTTCACGCCCTGTCAAGCGGCAGCAGACGGCTTCCCGTAATTCCTGGAAGTTATCCGGGAGTCGGCGCGAACGGCCCTCGATATCCGGTGCATTACCTGGGAATAGGGAATAGGGAACCGGTAATCCGCGGTCGGGGCAAGCGTCTGGGTGCGTGGACTTATCGTCACTGGCT (double strand) [mlmbAp-A],no binding
3,AGCCAGTGACGATAAGCGAGACAAGCAATCGGCTTCACGCCCTGTCAAGCGGCAGCAGACGGCTTCCCGTAATTCCTGGAAGTTATCCGGGAGTCGGCGCGAACGTGCCGCCACGGCCCTCGATATCCGGTGCATTACCTGGGAATAGGGAATAGGGAACCGGTAATCCGCGGTCGGGGCAAGCGTCTGGGTGCGTGGACTTATCGTCACTGGCT (double strand) [lmbAp-A],binds
4,AGCCAGTGACGATAAGCGGGGACACACAGGGGTGGGCGGCACGGTGGGGGAAATACACCGGTCGGCTGACCGGTTTCCGCGCACGCGCCCGACTCTTTTCAGCCAACTTCCGACCACCGGGCATCCTTGTGTCCAACCACCCCCCAACCCCCGTTTGACCTGCACGGAAAGGGTCCCCACTTATCGTCACTGGCT (double strand) [adpAp-B-1],no binding
5,AGCCAGTGACGATAAGCGTGTCTGCATTCCACCATCCGGGCAGGCCATGGGCTCCGCATCGAGGTTCCCGAGCCTATCGGGACGCCTCCCCCCAACAGGGGTCGGGTGGCCCGATGTTGTCTTATTTTATTGAGTTCTGAGGGAGCCTTATCGTCACTGGCT (double strand) [bldAp-A],binds
6,AGCCAGTGACGATAAGCTATAGGCTTCGCGGGCTTCGAACTCCGCAGCCGCCACGCCGACTTCGACGGTGCCGCCTACCGCCCGGACAGCCGCTACCACGTGTCCGTCTACGCCCGGGCGCACGGTGACTAGGGCGCGACGGCTCGCCGCCGCCGCGTTCCGGGCCTTATCGTCACTGGCT (double strand) [mlmbKp-B],no binding
7,AGCCAGTGACGATAAGGCGTTTACCTAGAACAAATCCGGGGCAAGCTCGCTCAGCTGTCGCCATGGGCGCCCTGACGCCACTGCGGCCCACGGATCGCCCCGTCAGCAAACTGGCCGAATGCCAACGGCATACGGCCAGTTCCTGACGCGGGCCACGGGGTTCACTCCGCGGACCACGCGTGCGGCGGCCGCCTCACTTATCCCGATGAGGCCACGCGTCGTCCGCCTCCGCGATCTCCTCCAGGGTTCCGTCCTTATCGTCACTGGCT (double strand) [lmbUp-C],binds
8,AGCCAGTGACGATAAGGGCCACACGTCGTAGACATCTGCGATCTTGTCACCGTAGAGCTTCGCGAAATCATGGTCGGACATTGAATTCTCTTTCCTCACCAGGACGTTGGCCACTCGGCGAGCGGCCGCAGGGAGACGGTGGCATGGGACGCGAGGGACAGTCGACACGGCAGCCGGTACCGGCGGTGTTCTTCGACCGGGACGGCGCTTATCGTCACTGGCT (double strand) [lmbJp-A],binds
9,AGCCAGTGACGATAAGGGCCACACGTCGTAGACATCTGCGATCTTGTCACCGTAGAGCTTCGCGAAATCATGGTCGGACATTGAATTCTCTTTCCTCACCAGGCTCGGCGAGCGGCCGCAGGGAGACGGTGGCATGGGACGCGAGGGACAGTCGACACGGCAGCCGGTACCGGCGGTGTTCTTCGACCGGGACGGCGCTTATCGTCACTGGCT (double strand) [mlmbJp-A],no binding
10,AGCCAGTGACGATAAGGGCGTAGACGGACACGTGGTAGCGGCTGTCCGGGCGGTAGGCGGCACCGTCGAAGTCGGCGTGGCGGCTGCGGAGTTCGAAGCCCGCGAAGCGGGCCATCAGGTCCAGCTCCGTGGGGTGCTTATCGTCACTGGCT (double strand) [lmbKp-B],binds
11,AGCCAGTGACGATAAGGGTTCCCGTGGTGCTCCTCTGGTACGGCACCTCGCTCGCCGGCGCCGCCGGCACCGCGCTCGGACTGGCCGCCGTCACCGCCGTCTGCCGTATCCTCCTGCGCCAGTCGGAGCGCGGTGCGGCACGGCTACTGGCCGAAGAACGGGCCCCCCATCGCGGCCACCGCCACCGGGCCGGAACGGGGACACACAGGGGTGGGCGCTTATCGTCACTGGCT (double strand) [adpAp-B-2],binds
12,AGCCAGTGACGATAAGTCGGACGAGGACGACGACAACCCCGCGGACGACCCGACAGGACTCGGCGAACGCCGCGTCTGCATCGGCACCGGCCCGCCCTCCGGATGCAGCGGAACCGGCGCACCGGCACCCGCCCCCGATCCGGCGGACGGCAAGGACCCGTCAGCGTCCTTATCGTCACTGGCT (double strand) [probe-neg],no binding
13,AGCCAGTGACGATAAGTCTACTGTGTCGCGTGATGCCGGAGTGACCAGTTCGTCATCCGGCAGATTGTCGACTTGGCAACTTGGCGTGAAGCATTCGATCACGAAGCGTTGCACTCGTGGGGCGTGCAGGGAAGTGCGCCTTGTCGCAGTGGCCAATCCACGTAGGGTGCGCTTATCGTCACTGGCT (double strand) [adpAp-A],binds
14,AGCCAGTGACGATAAGTGATCCGTACTTGATACATTGGCCGTTACATGTATCGGAGTTCCGAGGGGGGGCAATGATGCTGGTTCCGCCAAGCCATTCATGAGCTGCTCGCCTGCGCCGCCCTTCGTGGCGGTGGCGCGACATCGATGAGCGTGGTGGGCGCCGAACAACGGGGGTGAATCGCTGCTTCTTATCGTCACTGGCT (double strand) [lmbUp-A],binds
